Here are results for three molecules from PMC9299187.

Read-outs that look alike come from different tables or passages of the source.

Test [1] has as its target Chimera‐Long (human DHFR‐TYMS bifunctional chimeric enzyme with 20 amino acid linker) (human). Briefly: SEC; Superdex 200 10/300, 0.1 M K-phosphate pH 7.5, calibrated with protein standards; IMAC fractions of the Chimera constructs. For orientation: SEC sorts molecules by how far they enter the pores of the column.
Test [2] concerns the target Chimera‐Short (human DHFR‐TYMS bifunctional chimeric enzyme with 10 amino acid linker) (human). Described as above.
Test [3] deals with Chimera‐Long (human DHFR‐TYMS bifunctional chimeric enzyme with 20 amino acid linker) (human). Briefly: BLI; Chimera held by mouse anti-DHFR on a Protein-A biosensor, SHMT1 as analyte 1-30 uM, kinetic titration series, kinetic buffer, 25 °C; two-exponential fit, heterogeneous binding model with two binding events.
The target is the same in test [4]. Put plainly: SPR; Chimera-Long amine-coupled on a COOH2 chip (735 RU on Ch1, 175 RU on Ch3), SHMT1 as analyte 2.66-85 uM, 25 °C, 10 mM Hepes pH 7.4, 150 mM NaCl, 0.005% Tween-20; 1 : 1 bimolecular interaction model. A general note: In SPR one partner is held on a chip, and binding of the other changes the refractive index at the surface.
Test [5] shares this target. Described as above. The source holds these as a separate data set.

The stoichiometry N is a count of units in the complex or per binding partner. Consider “Chimera‐Long (human DHFR‐TYMS bifunctional chimeric enzyme with 20 amino acid linker)”, for which the stoichiometry N in test [1] turned out to be 2.

“Chimera‐Short (human DHFR‐TYMS bifunctional chimeric enzyme with 10 amino acid linker)”: the stoichiometry N in test [2] amounted to 2.

B1: serine hydroxymethyltransferase (SHMT1), purified recombinant, tetrameric (enzyme)
chain: DADLWSSHDKMLAQPLKDSDVEVYNIIKKESNRQRVGLELIASENFASRAVLEALGSCLNNKYSEGYPGQRYYGGTEFIDELETLCQKRALQAYKLDPQCWGVNVQPYSGSPANFAVYTALVEPHGRIMGLDLPDGGHLTHGFMTDKKKISATSIFFESMPYKVNPDTGYINYDQLEENARLFHPKLIIAGTSCYSRNLEYARLRKIADENGAYLMADMAHISGLVAAGVVPSPFEHCHVVTTTTHKTLRGCRAGMIFYRKGVKSVDPKTGKEILYNLESLINSAVFPGLQGGPHNHAIAGVAVALKQAMTLEFKVYQHQVVANCRALSEALTELGYKIVTGGSDNHLILVDLRSKGTDGGRAEKVLEACSIACNKNTCPGDRSALRPSGLRLGTPALTSRGLLEKDFQKVAHFIHRGIELTLQIQSDTGVRATLKEFKERLAGDKYQAAVQALREEVESFASLFPLPGL
One may read the Kd as a measure of binding affinity in units of concentration. Low readings indicate higher affinity, high ones lower affinity. The term koff denotes the rate constant with which the complex falls apart. The term kon denotes the second-order rate constant of association. In test [3], B1 gave a KD, binding 1 of 16.4 µM; a KD, binding 2 of 13.5 µM; a koff, binding 1 of 0.2 s⁻¹; a koff, binding 2 of 0.02 s⁻¹. In test [3], the kon, binding 1 was found to be 14000 M⁻¹ s⁻¹ and the kon, binding 2 turned out to be 1600 M⁻¹ s⁻¹. In test [4], this molecule showed a Kd of 2.5 µM, a koff of 0.0025 s⁻¹ and a kon of 470 M⁻¹ s⁻¹. The same molecule returned a Kd in test [5] of 2.9 µM.
